Measured values published in patent US20230395193A1 (priority 2020, published 2023).

Biological target: T1, Orf8-IL17RA interaction (Homo sapiens, UniProt Q96F46)
T1 construct: co-immunoprecipitation of endogenous IL17RA with Strep-tagged Orf8; host or cells: HEK293T
T1 sequence (Q96F46 33-866): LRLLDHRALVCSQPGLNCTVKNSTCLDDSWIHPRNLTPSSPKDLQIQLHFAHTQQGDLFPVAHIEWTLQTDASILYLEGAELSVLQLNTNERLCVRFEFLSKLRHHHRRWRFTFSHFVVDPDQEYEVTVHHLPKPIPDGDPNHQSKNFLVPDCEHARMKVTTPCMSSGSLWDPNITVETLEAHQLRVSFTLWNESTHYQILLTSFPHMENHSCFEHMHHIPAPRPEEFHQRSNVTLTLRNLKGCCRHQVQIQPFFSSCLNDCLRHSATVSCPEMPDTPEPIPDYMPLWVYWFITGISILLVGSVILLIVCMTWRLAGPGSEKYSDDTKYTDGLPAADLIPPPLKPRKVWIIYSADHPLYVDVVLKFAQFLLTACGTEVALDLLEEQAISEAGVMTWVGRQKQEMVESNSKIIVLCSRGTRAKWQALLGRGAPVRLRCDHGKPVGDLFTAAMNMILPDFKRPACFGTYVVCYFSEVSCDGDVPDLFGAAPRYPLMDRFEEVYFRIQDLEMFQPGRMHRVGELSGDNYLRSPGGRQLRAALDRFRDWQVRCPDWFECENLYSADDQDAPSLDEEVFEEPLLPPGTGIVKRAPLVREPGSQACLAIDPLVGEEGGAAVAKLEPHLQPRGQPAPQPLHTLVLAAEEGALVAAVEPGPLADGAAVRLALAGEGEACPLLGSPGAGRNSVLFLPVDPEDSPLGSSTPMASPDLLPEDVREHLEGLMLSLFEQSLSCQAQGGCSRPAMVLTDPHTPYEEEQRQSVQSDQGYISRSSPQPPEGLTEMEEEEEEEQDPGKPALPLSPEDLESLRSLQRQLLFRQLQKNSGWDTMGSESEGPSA
Type: binding

Substance: IL-17A
- Effect on Orf8-IL17RA interaction (co-immunoprecipitation, in words): does not disrupt the interaction with Orf8
